In US20120100070A1:

Target: GLP-1R-GFP stably expressed on HEK293 cells

- EC50 of peptide triggered cyclic AMP (cAMP) accumulation: 5 nM
Substance: GLP-1 (L-GLP-1, [Ala8]GLP-1-Ahx-Cys) (peptide)
